Results from the supplement of paper PMC10126150.
± gives the standard deviation of the averaged measurements.

Tested on: ATP
Test: switch fluorescence ratio, 500 uM ATP over buffer (Cy3 cluster intensity, sum of 5 cycles each) (fold (ratio)); higher = stronger signal-on switching upon ATP binding; sequences stand for … in TCGTCGGCAGCGTCAGATGTGTATAAGAGACAGTTTTTTTTTTTTTTTTTTTTTTTTT…TC
Settings: aptamer strand: ATP DNA aptamer (quencher-CACCTGGGGGAGTATTGCGGAGGAAGG + anchor), 100 nM annealed; ATP concentration: 500 uM
Procedure, shortened: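 Clusters with intensities outside 100-1000 RFU were excluded. The remaining Cy3-labelled switching-strand clusters on a modified Illumina MiSeq flow-cell had been annealed to 100 nM quencher-labelled ATP aptamer and imaged in selection buffer, then after 15 min with 500 uM ATP at 22 °C, for five cycles separated by NaOH stripping and re-annealing. The fluorescence ratio, averaged per switch-domain sequence, is each cluster's summed target-cycle Cy3 intensity over its summed buffer-cycle Cy3 intensity.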
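Further: ATP exposure 15 min at 22 °C before imaging.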

Sequence	switch fluorescence ratio
GAGTGTCGCC	0.99 ± 0.021
GAGTGTGATG	0.97 ± 0.021
GAGTTACATG	1.02 ± 0.048
GAGTTAGAAG	0.9657 ± 0.0014
GAGTTAGTCA	0.975 ± 0.024
GAGTTAGTTG	0.987 ± 0.093
GAGTTATTGT	0.9806 ± 0.0095
GAGTTATTTT	0.976 ± 0.017
GAGTTCGTAA	1.46 ± 0.15
GAGTTCTTAG	0.9587 ± 0.0011
GAGTTCTTCA	0.973 ± 0.015
GAGTTGAGTT	1.01 ± 0.074
GAGTTGGGTT	1.01 ± 0.034
GAGTTGTGCC	1.1 ± 0.032
GAGTTTCATG	0.963 ± 0.015
GAGTTTGAAA	0.993 ± 0.041
GAGTTTGAAT	0.969 ± 0.021
GAGTTTGTGT	0.996 ± 0.011
GAGTTTGTTG	0.985 ± 0.014
GAGTTTTTTT	0.987 ± 0.033
GATAAACGAT	1.02 ± 0.031
GATAAAGTGG	0.995 ± 0.041
GATAAGTCGG	1.009 ± 0.01
GATAATCTGT	0.984 ± 0.048
GATAATTGAG	1.04 ± 0.044

Sequence	switch fluorescence ratio
GATAATTTGT	0.973 ± 0.065
GATACATTAT	0.998 ± 0.028
GATACCGTGC	1.18 ± 0.061
GATACCTTTT	1.13 ± 0.24
GATACGAACG	1.32 ± 0.043
GATACGAAGT	0.981 ± 0.028
GATACGGGGA	0.988 ± 0.029
GATACTGAAC	1.3 ± 0.024
GATAGACGGT	1.01 ± 0.047
GATAGAGATT	0.9961 ± 0.0066
GATAGAGTAG	1.016 ± 0.0019
GATAGCGGGA	0.97 ± 0.058
GATAGGGCAA	1.08 ± 0.075
GATAGGGCTT	0.994 ± 0.056
GATAGGGTAC	1.0351 ± 0.0001
GATAGGTGCC	1.002 ± 0.0027
GATAGGTTGG	0.985 ± 0.066
GATAGTTCGC	1.01 ± 0.015
GATATATATC	0.9903 ± 0.0054
GATATATGCA	0.997 ± 0.028
GATATATGGT	0.9833 ± 0.0077
GATATGGCAC	1.05 ± 0.042
GATATGTGTT	1.001 ± 0.0024
GATATGTTCC	1.13 ± 0.084
GATATGTTTT	1 ± 0.035

Sequence	switch fluorescence ratio
GATATTATGA	1.01 ± 0.01
GATATTCCTG	1 ± 0.03
GATATTGGTT	1.02 ± 0.025
GATATTTGGA	0.996 ± 0.041
GATATTTTA	0.9929 ± 0.0069
GATCAGCCCG	1.016 ± 0.005
GATCAGGGGT	1.06 ± 0.044
GATCAGGTCT	0.987 ± 0.032
GATCAGTGTT	0.9783 ± 0.0093
GATCATAAAA	1.02 ± 0.017
GATCATAGGG	1.01 ± 0.018
GATCATCCTG	1.008 ± 0.0065
GATCCAATGT	0.993 ± 0.019
GATCCATGCT	0.9536 ± 0.0019
GATCCGCTGG	1.11 ± 0.012
GATCCGGGGG	0.988 ± 0.043
GATCCTGGGG	0.974 ± 0.054
GATCGAAACT	1.01 ± 0.081
GATCGAGACC	1.024 ± 0.0044
GATCGGATGT	0.981 ± 0.011
GATCGGGGGG	0.983 ± 0.041
GATCGGGGTG	0.965 ± 0.021
GATCGGTGCT	1 ± 0.015
GATCGTACTT	1.08 ± 0.015
GATCGTTGTC	0.988 ± 0.027

Sequence	switch fluorescence ratio
GATCGTTTTA	1 ± 0.022
GATCTAAAAG	1.03 ± 0.017
GATCTAGGAG	1.02 ± 0.017
GATCTGGACA	1.01 ± 0.032
GATCTTCGTT	1.01 ± 0.041
GATCTTGTTT	0.976 ± 0.018
GATCTTTCAT	1 ± 0.018
GATCTTTTTT	1.02 ± 0.023
GATGAAAAAA	1.02 ± 0.037
GATGAAAGGC	1.046 ± 0.0017
GATGAAAGGT	1.002 ± 0.0047
GATGAAATGT	0.994 ± 0.015
GATGAATGAC	1.02 ± 0.016
GATGAATGTC	1.04 ± 0.13
GATGAATTGC	1.01 ± 0.033
GATGACAGGG	1.01 ± 0.12
GATGAGCCGG	1 ± 0.027
GATGAGGATG	0.987 ± 0.014
GATGAGGGGT	0.986 ± 0.038
GATGATGATG	1.014 ± 0.0022
GATGATGCTG	1.03 ± 0.017
GATGATGTAT	1.01 ± 0.033
GATGATTGGT	0.998 ± 0.015
GATGATTTTA	1.02 ± 0.042
GATGCGGTG	1 ± 0.012

Sequence	switch fluorescence ratio
GATGCGGTTA	0.988 ± 0.031
GATGCGGTTT	0.994 ± 0.019
GATGCTCCTT	1.05 ± 0.031
GATGCTCGAG	1 ± 0.016
GATGCTGGCG	1.01 ± 0.052
GATGGACCTT	1.08 ± 0.11
GATGGAGTGT	0.978 ± 0.018
GATGGAGTTG	1.013 ± 0.0053
GATGGCCCTT	0.99064 ± 0.00065
GATGGCTGTG	1.021 ± 0.01
GATGGGAGGA	0.9639 ± 0.005
GATGGGAGTG	1 ± 0.029
GATGGGATTG	0.966 ± 0.037
GATGGGCTCG	0.988 ± 0.025
GATGGGGATG	0.9677 ± 0.0045
GATGGGGATT	1.04 ± 0.069
GATGGGGCGC	0.975 ± 0.069
GATGGGGCGT	0.989 ± 0.055
GATGGGGTCC	0.949 ± 0.015
GATGGGGTGG	1 ± 0.016
GATGGGTACG	1.02 ± 0.042
GATGGGTCGT	1 ± 0.033
GATGGGTCTG	0.948 ± 0.014
GATGGGTTCT	0.9926 ± 0.0044
GATGGGTTGA	1.06 ± 0.03

Sequence	switch fluorescence ratio
GATGGGTTGG	0.9899 ± 0.008
GATGGTAGCT	1.04 ± 0.074
GATGGTATGG	1.007 ± 0.0052
GATGGTGAGA	1.02 ± 0.065
GATGGTTAAC	1.01 ± 0.0045
GATGGTTGTG	0.95 ± 0.037
GATGTACAGT	1.035 ± 0.0072
GATGTAGGAA	1.013 ± 0.0065
GATGTATGTA	0.973 ± 0.021
GATGTATTCG	1.001 ± 0.0089
GATGTCAAGA	1.01 ± 0.023
GATGTCCCGG	0.987 ± 0.022
GATGTCGTGC	1.03 ± 0.031
GATGTGAGCC	1.01 ± 0.018
GATGTTAATA	0.985 ± 0.085
GATGTTAGTG	1.003 ± 0.008
GATGTTCAGG	0.9875 ± 0.0011
GATGTTGTAT	1.01 ± 0.021
GATGTTGTGG	0.9751 ± 0.0029
GATGTTTAAT	0.991 ± 0.029
GATGTTTGCG	0.994 ± 0.034
GATGTTTTAC	0.998 ± 0.025
GATTAAAGTC	1.03 ± 0.034
GATTAACGGT	1.012 ± 0.0084
GATTAAGGT	0.992 ± 0.014

Sequence	switch fluorescence ratio
GATTACAGTG	1.02 ± 0.047
GATTACGGGA	1.052 ± 0.0098
GATTAGAAGT	0.996 ± 0.016
GATTAGGCAT	0.996 ± 0.039
GATTAGGTGA	1.06 ± 0.014
GATTATAGTA	0.952 ± 0.027
GATTATCATT	0.9669 ± 0.0093
GATTATTCTG	0.966 ± 0.039
GATTATTTGA	0.992 ± 0.061
GATTCACGGT	1.01 ± 0.02
GATTCACGTT	1.052 ± 0.0043
GATTCAGCGG	0.97 ± 0.015
GATTCAGGAA	1 ± 0.047
GATTCAGGTA	1.01 ± 0.026
GATTCCAGTT	1.01 ± 0.032
GATTCGTGAC	1.03 ± 0.052
GATTCTCTAT	1.008 ± 0.0033
GATTCTTGTT	1.02 ± 0.046
GATTGAATGG	0.985 ± 0.055
GATTGAATTT	0.989 ± 0.032
GATTGAGGAA	0.9864 ± 0.0061
GATTGATGGT	0.992 ± 0.021
GATTGCAGCG	1.002 ± 0.0016
GATTGCCTGT	0.981 ± 0.029
GATTGCGAGA	1.01 ± 0.036

Sequence	switch fluorescence ratio
GATTGCGGGC	1.03 ± 0.011
GATTGGAGGG	0.997 ± 0.026
GATTGGCACC	0.965 ± 0.014
GATTGGCAGC	1.015 ± 0.0035
GATTGGGGGC	1.04 ± 0.12
GATTGGGTTC	0.9685 ± 0.0036
GATTGGTTGT	1.01 ± 0.022
GATTGTAAAG	1.021 ± 0.01
GATTGTGACG	1.06 ± 0.057
GATTGTGCCG	1.03 ± 0.061
GATTGTTAGA	0.9891 ± 0.0081
GATTGTTCGT	1.031 ± 0.0085
GATTTAACGG	1.01 ± 0.038
GATTTAAGTT	0.9988 ± 0.0098
GATTTACGAT	1.026 ± 0.0019
GATTTAGGTG	1.12 ± 0.0065
GATTTCCCCG	1.18 ± 0.028
GATTTCCTGG	1.01 ± 0.02
GATTTGAATT	0.977 ± 0.025
GATTTGAGCG	0.9852 ± 0.0046
GATTTGAGTG	0.959 ± 0.027
GATTTGCGGG	0.9833 ± 0.0069
GATTTGTTTT	0.994 ± 0.013
GATTTTAGAG	0.9809 ± 0.003
GATTTTATTG	1.01 ± 0.017
